The record followed here is PMC8708005.

In this data set the target is PCBP2 (poly(C)-binding protein 2, hnRNP E2) (UniProt Q15366). In words: EMSA. The conditions noted are these: EMSA: 25 mM NaH2PO4 pH 8.0, 50 mM NaCl, 25 mM KCl, 2.5 mM MgCl2, 10 mM imidazole, 0.5 mM DTT, 0.5 mM PMSF, 7% glycerol, 0.5 U/uL RNasin, 75 ng/uL BSA …. In general terms: Mobility shift assays separate free from complexed probe on a gel.
Sequence of PCBP2 (poly(C)-binding protein 2, hnRNP E2) (Q15366 whole entry): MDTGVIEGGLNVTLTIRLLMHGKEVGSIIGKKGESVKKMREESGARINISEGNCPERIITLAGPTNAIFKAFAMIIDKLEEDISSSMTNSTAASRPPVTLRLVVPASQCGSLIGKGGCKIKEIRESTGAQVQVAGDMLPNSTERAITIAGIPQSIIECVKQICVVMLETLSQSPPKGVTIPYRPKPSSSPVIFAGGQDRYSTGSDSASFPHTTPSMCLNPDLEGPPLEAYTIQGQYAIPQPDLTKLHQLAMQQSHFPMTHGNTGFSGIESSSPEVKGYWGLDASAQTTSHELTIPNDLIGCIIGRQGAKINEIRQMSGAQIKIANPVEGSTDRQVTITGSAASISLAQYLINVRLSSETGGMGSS

The term Kd denotes the equilibrium constant for the complex coming apart. Low values mean higher affinity, high ones lower affinity. Consider “GGUCAUGGCGACUGUCCAGCUUUGUGCCAGGAGCCUCGCAGGGGUUGAUGGGAUUGGGGUUUUCCCCUCCCAUGUGCUCAAGACUGGCGCUAAAAGUUUUGAGCUUCUCAAAAGUCUAGAGCCACCGUCCAGGGAGCAGGUAGCUGCUGGGCUCCGGGGACACUUUGCGUUCGGGCUGGGAGCGUGCUUUCCACGACGGUGACACGCUUCCCUGGAUUGGCAGCCAGACUGCCUUCCGGGUCACUGCCAUGGAGGAGCCGCAGUCAGAUCCUAGCGUCGAGCCCCCUCUGAGUCAGGAAACAUUUUCAGACCUAUGGAAACUACUUCCUGAAAACAACGUUCUGUCCCCCUUGCCGUCCCAAGCAAUG [P0-Δ40p53 RNA]”, for which the Kd worked out at 63 nM.
